These results are taken from paper PMC4615104 (Cell Cycle, 2015).

The assay addresses recombinant hMDM2 (human, UniProt Q00987 1-491). In words: ELISA. (An ELISA detects its analyte on a solid surface through an enzyme-linked reagent.)

recombinant hMDM2, sequence (Q00987 whole entry): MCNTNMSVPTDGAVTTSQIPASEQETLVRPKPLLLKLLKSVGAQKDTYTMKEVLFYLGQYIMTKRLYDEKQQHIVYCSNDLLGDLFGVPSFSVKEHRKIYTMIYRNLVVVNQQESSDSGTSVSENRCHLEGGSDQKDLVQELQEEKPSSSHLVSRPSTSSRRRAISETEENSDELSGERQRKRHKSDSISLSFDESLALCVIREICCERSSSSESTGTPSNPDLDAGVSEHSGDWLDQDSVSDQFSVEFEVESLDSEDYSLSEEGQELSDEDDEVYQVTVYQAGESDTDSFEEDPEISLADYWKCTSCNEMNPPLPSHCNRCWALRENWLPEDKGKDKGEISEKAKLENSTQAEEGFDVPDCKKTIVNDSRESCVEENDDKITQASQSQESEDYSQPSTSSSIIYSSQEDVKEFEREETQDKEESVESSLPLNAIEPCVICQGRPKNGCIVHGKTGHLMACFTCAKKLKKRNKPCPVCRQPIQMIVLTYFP

B1: recombinant hMDMX^FL (natural protein)
chain: MTSFSTSAQCSTSDSACRISPGQINQVRPKLPLLKILHAAGAQGEMFTVKEVMHYLGQYIMVKQLYDQQEQHMVYCGGDLLGELLGRQSFSVKDPSPLYDMLRKNLVTLATATTDAAQTLALAQDHSMDIPSQDQLKQSAEESSTSRKRTTEDDIPTLPTSEHKCIHSREDEDLIENLAQDETSRLDLGFEEWDVAGLPWWFLGNLRSNYTPRSNGSTDLQTNQDVGTAIVSDTTDDLWFLNESVSEQLGVGIKVEAADTEQTSEEVGKVSDKKVIEVGKNDDLEDSKSLSDDTDVEVTSEDEWQCTECKKFNSPSKRYCFRCWALRKDWYSDCSKLTHSLSTSDITAIPEKENEGNDVPDCRRTISAPVVRPKDAYIKKENSKLFDPCNSVEFLDLAHSSESQETISSMGEQLDNLSEQRTDTENMEDCQNLLKPCSLCEKRPRDGNIIHGRTGHLVTCFHCARRLKKAGASCPICKKEIQLVIKVFIA
As for B1, the binding result is listed as “binds”.

B2: recombinant hMDMX^p60 (natural protein)
chain: MDIPSQDQLKQSAEESSTSRKRTTEDDIPTLPTSEHKCIHSREDEDLIENLAQDETSRLDLGFEEWDVAGLPWWFLGNLRSNYTPRSNGSTDLQTNQDVGTAIVSDTTDDLWFLNESVSEQLGVGIKVEAADTEQTSEEVGKVSDKKVIEVGKNDDLEDSKSLSDDTDVEVTSEDEWQCTECKKFNSPSKRYCFRCWALRKDWYSDCSKLTHSLSTSDITAIPEKENEGNDVPDCRRTISAPVVRPKDAYIKKENSKLFDPCNSVEFLDLAHSSESQETISSMGEQLDNLSEQRTDTENMEDCQNLLKPCSLCEKRPRDGNIIHGRTGHLVTCFHCARRLKKAGASCPICKKEIQLVIKVFIA
B2: the binding result is listed as “binds”.
